This note sets out measurements from article PMC4976026 (The Journal of allergy and clinical immunology, 2016).

The target in this experiment is T1, tGFP-tagged Rab27a R82C (human, UniProt P51159 1-221, R82C).
T1 sequence (looked up): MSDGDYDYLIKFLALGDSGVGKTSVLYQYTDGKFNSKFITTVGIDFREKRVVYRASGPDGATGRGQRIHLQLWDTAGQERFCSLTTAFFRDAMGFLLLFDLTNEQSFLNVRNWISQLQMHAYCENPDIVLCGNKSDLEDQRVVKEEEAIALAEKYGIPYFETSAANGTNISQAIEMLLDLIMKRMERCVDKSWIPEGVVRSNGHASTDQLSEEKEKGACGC
Put plainly: co-IP.

B1: melanophilin (natural protein, human (endogenous in mel1106), UniProt Q9BV36 1-600, looked up)
chain: MGKKLDLSKLTDEEAQHVLEVVQRDFDLRRKEEERLEALKGKIKKESSKRELLSDTAHLNETHCARCLQPYQLLVNSKRQCLECGLFTCKSCGRVHPEEQGWICDPCHLARVVKIGSLEWYYEHVKARFKRFGSAKVIRSLHGRLQGGAGPELISEERSGDSDQTDEDGEPGSEAQAQAQPFGSKKKRLLSVHDFDFEGDSDDSTQPQGHSLHLSSVPEARDSPQSLTDESCSEKAAPHKAEGLEEADTGASGCHSHPEEQPTSISPSRHGALAELCPPGGSHRMALGTAAALGSNVIRNEQLPLQYLADVDTSDEESIRAHVMASHHSKRRGRASSESQIFELNKHISAVECLLTYLENTVVPPLAKGLGAGVRTEADVEEEALRRKLEELTSNVSDQETSSEEEEAKDEKAEPNRDKSVGPLPQADPEVGTAAHQTNRQEKSPQDPGDPVQYNRTTDEELSELEDRVAVTASEVQQAESEVSDIESRIAALRAAGLTVKPSGKPRRKSNLPIFLPRVAGKLGKRPEDPNADPSSEAKAMAVPYLLRRKFSNSLKSQGKDDDSFDRKSVYRGSLTQRNPNARKGMASHTFAKPVVAHQS
In the case of B1, the “fold melanophilin coprecipitated relative to Rab27a D74H” value came to 2.7 ± 1.4 fold.
